In IntAct's records for PubMed 18264113:

B1: Histone-lysine N-methyltransferase EHMT2 (Mus musculus), Q9Z148-1 (parent)
chain: MRGLPRGRGLMRARGRGRAAPTGGRGRGRGGAHRGRGRPRSLLSLPRAQASWAPQLPAGLTGPPVPCLPSQGEAPAEMGALLLEKEPRGAAERVHSSLGDTPQSEETLPKANPDSLEPAGPSSPASVTVTVGDEGADTPVGAASLIGDEPESLEGDGGRIVLGHATKSFPSSPSKGGACPSRAKMSMTGAGKSPPSVQSLAMRLLSMPGAQGAATAGPEPSPATTAAQEGQPKVHRARKTMSKPSNGQPPIPEKRPPEVQHFRMSDDMHLGKVTSDVAKRRKLNSGSLSEDLGSAGGSGDIILEKGEPRPLEEWETVVGDDFSLYYDAYSVDERVDSDSKSEVEALAEQLSEEEEEEEEEEEEEEEEEEEEEEEEEDEESGNQSDRSGSSGRRKAKKKWRKDSPWVKPSRKRRKREPPRAKEPRGVNGVGSSGPSEYMEVPLGSLELPSEGTLSPNHAGVSNDTSSLETERGFEELPLCSCRMEAPKIDRISERAGHKCMATESVDGELLGCNAAILKRETMRPSSRVALMVLCEAHRARMVKHHCCPGCGYFCTAGTFLECHPDFRVAHRFHKACVSQLNGMVFCPHCGEDASEAQEVTIPRGDGGTPPIGTAAPALPPLAHDAPGRADTSQPSARMRGHGEPRRPPCDPLADTIDSSGPSLTLPNGGCLSAVGLPPGPGREALEKALVIQESERRKKLRFHPRQLYLSVKQGELQKVILMLLDNLDPNFQSDQQSKRTPLHAAAQKGSVEICHVLLQAGANINAVDKQQRTPLMEAVVNNHLEVARYMVQLGGCVYSKEEDGSTCLHHAAKIGNLEMVSLLLSTGQVDVNAQDSGGWTPIIWAAEHKHIDVIRMLLTRGADVTLTDNEENICLHWASFTGSAAIAEVLLNAQCDLHAVNYHGDTPLHIAARESYHDCVLLFLSRGANPELRNKEGDTAWDLTPERSDVWFALQLNRKLRLGVGNRAVRTEKIICRDVARGYENVPIPCVNGVDGEPCPEDYKYISENCETSTMNIDRNITHLQHCTCVDDCSSSNCLCGQLSIRCWYDKDGRLLQEFNKIEPPLIFECNQACSCWRSCKNRVVQSGIKVRLQLYRTAKMGWGVRALQTIPQGTFICEYVGELISDAEADVREDDSYLFDLDNKDGEVYCIDARYYGNISRFINHLCDPNIIPVRVFMLHQDLRFPRIAFFSSRDIRTGEELGFDYGDRFWDIKSKYFTCQCGSEKCKHSAEAIALEQSRLARLDPHPELLPDLSSLPPINT

Variants of: B1
Settings: with gfi1_human GFI1, Q99684
Sequence of gfi1_human GFI1, Q99684 (Q99684 whole entry): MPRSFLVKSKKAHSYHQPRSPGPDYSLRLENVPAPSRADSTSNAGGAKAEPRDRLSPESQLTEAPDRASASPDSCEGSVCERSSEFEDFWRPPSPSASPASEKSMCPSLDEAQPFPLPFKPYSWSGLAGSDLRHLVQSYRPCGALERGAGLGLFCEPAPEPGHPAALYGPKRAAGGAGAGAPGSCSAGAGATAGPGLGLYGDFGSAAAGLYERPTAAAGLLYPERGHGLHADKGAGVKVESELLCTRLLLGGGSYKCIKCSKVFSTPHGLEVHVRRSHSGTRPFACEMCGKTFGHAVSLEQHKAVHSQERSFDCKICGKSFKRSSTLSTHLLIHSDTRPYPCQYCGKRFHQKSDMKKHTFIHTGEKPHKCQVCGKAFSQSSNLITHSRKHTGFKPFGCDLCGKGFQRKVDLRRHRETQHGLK

effect of a mutation on the interaction	Variant
decreasing interaction	W839A
decreasing interaction	E847A

Variants of: B1
Settings: with ncoa2_mouse Ncoa2, Q61026
Sequence of ncoa2_mouse Ncoa2, Q61026 (Q61026 whole entry): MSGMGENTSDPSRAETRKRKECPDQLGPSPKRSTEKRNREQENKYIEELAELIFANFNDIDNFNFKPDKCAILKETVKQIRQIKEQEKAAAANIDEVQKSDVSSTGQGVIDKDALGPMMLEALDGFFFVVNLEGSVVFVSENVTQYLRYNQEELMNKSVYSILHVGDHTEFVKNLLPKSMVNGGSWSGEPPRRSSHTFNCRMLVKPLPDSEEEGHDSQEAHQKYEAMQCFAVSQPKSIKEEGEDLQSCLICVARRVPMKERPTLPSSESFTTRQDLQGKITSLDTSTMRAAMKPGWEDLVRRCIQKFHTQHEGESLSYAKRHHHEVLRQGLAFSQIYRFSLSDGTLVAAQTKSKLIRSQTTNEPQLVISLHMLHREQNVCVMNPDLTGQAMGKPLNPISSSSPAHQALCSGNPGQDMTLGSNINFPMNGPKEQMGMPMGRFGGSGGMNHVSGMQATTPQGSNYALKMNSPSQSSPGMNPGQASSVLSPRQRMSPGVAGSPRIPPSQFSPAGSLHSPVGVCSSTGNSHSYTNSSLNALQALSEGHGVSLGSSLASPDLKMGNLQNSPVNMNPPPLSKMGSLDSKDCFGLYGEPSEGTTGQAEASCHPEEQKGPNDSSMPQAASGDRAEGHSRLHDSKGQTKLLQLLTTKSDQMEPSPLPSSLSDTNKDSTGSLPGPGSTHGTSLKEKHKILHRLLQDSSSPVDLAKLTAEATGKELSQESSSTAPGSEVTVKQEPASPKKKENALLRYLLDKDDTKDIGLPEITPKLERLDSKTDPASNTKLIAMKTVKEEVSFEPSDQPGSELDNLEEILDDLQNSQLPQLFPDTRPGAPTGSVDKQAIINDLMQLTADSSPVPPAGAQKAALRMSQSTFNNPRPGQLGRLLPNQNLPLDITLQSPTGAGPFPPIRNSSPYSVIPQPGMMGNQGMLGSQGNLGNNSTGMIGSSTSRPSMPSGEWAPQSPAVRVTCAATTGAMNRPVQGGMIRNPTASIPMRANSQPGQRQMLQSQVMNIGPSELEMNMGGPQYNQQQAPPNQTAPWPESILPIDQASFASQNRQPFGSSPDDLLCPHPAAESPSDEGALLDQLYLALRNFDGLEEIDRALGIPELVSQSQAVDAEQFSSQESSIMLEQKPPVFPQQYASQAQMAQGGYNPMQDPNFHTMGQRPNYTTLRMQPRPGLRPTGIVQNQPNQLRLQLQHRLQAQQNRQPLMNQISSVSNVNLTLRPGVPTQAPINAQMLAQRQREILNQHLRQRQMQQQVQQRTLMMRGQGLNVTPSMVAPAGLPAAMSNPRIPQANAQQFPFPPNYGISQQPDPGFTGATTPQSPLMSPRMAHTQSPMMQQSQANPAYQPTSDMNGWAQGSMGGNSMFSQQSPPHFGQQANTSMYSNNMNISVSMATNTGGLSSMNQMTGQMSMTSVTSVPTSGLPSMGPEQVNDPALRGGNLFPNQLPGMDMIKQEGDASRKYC

effect of a mutation on the interaction	Variant
decreasing interaction	E847A
